Molecular target: Gβγ (bovine) (UniProt P62871)

decrease of GIRK1* current (two-electrode voltage clamp, Xenopus oocytes coexpressing GIRK1* and Gβγ) 40-50 min after injection of purified His-phosducin to ~23 µM: 74%
Substance: His-tagged phosducin (from UniProt P19632 1-245) (natural protein)

Reference: article PMC6346094
